We go through eight molecules from patent US11278600B2, “Human alpha-galactosidase variants” (Codexis, Inc., priority 2014, dated 2022).

Holding throughout (format): biochemical
Data set [1] is described as follows: HTP-analysis of supernatants pretreated with base (MUGal hydrolysis). The following applies: activity of the variant/activity of Rd4BB (SEQ ID NO: 15); challenge at pH 9.65. A digest of the protocol: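 GLA variants were secreted by transformed INVSc1 yeast grown 66-84 h at 30° C. Supernatants were exposed to neutral-to-basic buffers (pH 7.0-9.7) at 37° C for 1-18 h, then assayed with MUGal in acidic citrate/McIlvaine buffer, with fluorescence read after quenching.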

A short description of data set [2]: HTP-analysis of yeast culture supernatants, no challenge (MUGal hydrolysis). Conditions: activity of the variant/activity of Rd4BB (SEQ ID NO: 15). A digest of the protocol: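 Activity read as 4-methylumbelliferyl α-D-galactopyranoside hydrolysis: fluorescence (355/448 nm) after sodium carbonate stop, following 30-180 min at 37° C with 2 mM MUGal stock at pH 4.6–4.8. Enzyme source is unchallenged culture supernatant of INVSc1 yeast expressing GLA variants, grown 66-84 h at 30° C.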

Data set [3] is described as follows: HTP-analysis of supernatants pretreated with acid (MUGal hydrolysis). The following applies: activity of the variant/activity of Rd4BB (SEQ ID NO: 15); challenge at pH 3.7. The procedure, abridged: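 Yeast INVSc1 supernatant, GLA variants; acid challenge: McIlvaine pH 3.3-4.3, 37° C., 1-3 h. Assay: MUGal in McIlvaine pH 4.8 plus citrate pH 4.3, 37° C., 30-180 min, Na2CO3 stop, Ex 355/Em 448 nm.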

B1: 453 (protein)
chain: LDNGLARTPTMGWLHWERFMCNLDCQEEPDSCISEKLFMEMAERMVSEGWKDAGYEYLCIDDCWMAPQRDSEGRLQADPQRFPHGIRQLANYVHSKGLKLGIYADVGNKTCAGFPGSFGYYDIDAQTFADWGVDLLKFDGCYCDSLENLADGYKHMSLALNRTGRSIVYSCEWPLYMWPFQKPNYTEIRQYCNHWRNFADIDDSWKSIKSILDWTSRNQERIVDVAGPGGWNDPDMLVIGNFGLSWDQQVTQMALWAIMAAPLFMSNDLLHISPQAKALLQDKDVIAINQDPLGKQGYQLRKGDNFEVWERPLSGDAWAVAIINRQEIGGPRSYTIPVASLGKGVACNPACFITQLLPVKRQLGFYNWTSRLKSHINPTGTVLLQLENTMQMSLKDLL
modifications: Synthetic Polypeptide sequence of Variant No. 453 of mature Human GLA
In the case of B1, the “Relative Activity of GLA Variants After Challenge at pH 9.65” value (“Relative Activity … at pH 9.65” for short) in data set [1] is listed as “− (<0.5 relative activity over Rd4BB (SEQ ID NO: 15))”. Besides, in data set [2], the “Relative Activity of GLA Variants After No Challenge (NC)” value is “+ (0.5 to 1.5 relative activity over Rd4BB (SEQ ID NO: 15))”. In addition, the “Relative Activity of GLA Variants After Challenge at pH 3.7” value (“Relative Activity … at pH 3.7” below) in data set [3] is recorded as “− (<0.5 relative activity over Rd4BB (SEQ ID NO: 15))”.

B2: 459 (protein)
chain: LDNGLARTPTMGWLHWERFMCNLDCQEEPDSCISEKLFMEMAERMVSEGWKDAGYEYLCIDDCWMAPQRDSEGRLQADPQRFPHGIRQLANYVHSKGLKLGIYADVGNKTCAGFPGSFGYYDIDAQTFADWGVDLLKFDGCYCDSLENLADGYKHMSLALNRTGRSIVYSCEWPLYMWPFQKPNYTEIRQYCNHWRNFADIDDSWKSIKSILDWTSRNQERIVDVAGPGGWNDPDMLVIGNFGLSWDQQVTQMALWAIMAAPLFMSNDLRHISPQAKALLQDKDVIAINQDPLGKQGYQLRKGDNFEVWERPLSGDAWAVAIINRQEIGGPRSYTIPVASLGKGVACNPACFITQLLPVKRQLGFYNWTSRLKSHINPTGTVLLQLENTHQMSLKDLL
modifications: Synthetic Polypeptide sequence of Variant No. 459 of mature Human GLA
With B2, the “Relative Activity … at pH 9.65” value in data set [1] is listed as “+ (0.5 to 1.5 relative activity over Rd4BB (SEQ ID NO: 15))”. Further, the “Relative Activity of GLA Variants After No Challenge (NC)” value in data set [2] is “+ (0.5 to 1.5 relative activity over Rd4BB (SEQ ID NO: 15))”. Further, the “Relative Activity … at pH 3.7” value in data set [3] is reported as “++ (>1.5 to 2.5 relative activity over Rd4BB (SEQ ID NO: 15))”.

B3: 454 (protein)
chain: LDNGLARTPTMGWLHWERFMCNLDCQEEPDSCISEKLFMEMAERMVSEGWKDAGYEYLCIDDCWMAPQRDSEGRLQADPQRFPHGIRQLANYVHSKGLKLGIYADVGNKTCAGFPGSFGYYDIDAQTFADWGVDLLKFDGCYCDSLENLADGYKHMSLALNRTGRSIVYSCEWPLYMWPFQKPNYTEIRQYCNHWRNFADIDDSWKSIKSILDWTSRNQERIVDVAGPGGWNDPDMLVIGNFGLSWDQQVTQMALWAIMAAPLFMSNDLRHISPQAKALLQDKDVIAINQDPLGKQGYQLRKGDNFEVWERPLSGDAWAVAIINRQEIGGPRSYTIPVASLGKGVACNPACFITQLLPVKRQLGFYNWTSRLKSHINPTGTVLLQLENTPQMSLKDLL
modifications: Synthetic Polypeptide sequence of Variant No. 454 of mature Human GLA
As to B3, the “Relative Activity … at pH 9.65” value in data set [1] is reported as “+ (0.5 to 1.5 relative activity over Rd4BB (SEQ ID NO: 15))”. The “Relative Activity of GLA Variants After No Challenge (NC)” value in data set [2] is listed as “+ (0.5 to 1.5 relative activity over Rd4BB (SEQ ID NO: 15))”. For the same molecule, the “Relative Activity … at pH 3.7” value in data set [3] was “++ (>1.5 to 2.5 relative activity over Rd4BB (SEQ ID NO: 15))”.

B4: 456 (protein)
chain: LDNGLARTPTMGWLHWERFMCNLDCQEEPDSCISEKLFMEMAERMVSEGWKDAGYEYLCIDDCWMAPQRDSEGRLQADPQRFPHGIRQLANYVHSKGLKLGIYADVGNKTCAGFPGSFGYYDIDAQTFADWGVDLLKFDGCYCDSLENLADGYKHMSLALNRTGRSIVYSCEWPLYMWPFQKPNYTEIRQYCNHWRNFADIDDSWKSIKSILDWTSRNQERIVDVAGPGGWNDPDMLVIGNFGLSWDQQVTQMALWAIMAAPLFMSNDLRHISPQAKALLQDKDVIAINQDPLGKQGYQLRKGDNFEVWERPLSGDAWAVAIINRQEIGGPRSYTIPVASLGKGVACNPACFITQLLPVKRQLGFYNWTSRLKSHINPTGTVLLQLENMMQMSLKDLL
modifications: Synthetic Polypeptide sequence of Variant No. 456 of mature Human GLA
In the case of B4, in data set [1], the “Relative Activity … at pH 9.65” value is recorded as “+ (0.5 to 1.5 relative activity over Rd4BB (SEQ ID NO: 15))”. In data set [2], the “Relative Activity of GLA Variants After No Challenge (NC)” value is reported as “+ (0.5 to 1.5 relative activity over Rd4BB (SEQ ID NO: 15))”. Also, in data set [3], the “Relative Activity … at pH 3.7” value is listed as “+ (0.5 to 1.5 relative activity over Rd4BB (SEQ ID NO: 15))”.

B5: 455 (protein)
chain: LDNGLARTPTMGWLHWERFMCNLDCQEEPDSCISEKLFMEMAERMVSEGWKDAGYEYLCIDDCWMAPQRDSEGRLQADPQRFPHGIRQLANYVHSKGLKLGIYADVGNKTCAGFPGSFGYYDIDAQTFADWGVDLLKFDGCYCDSLENLADGYKHMSLALNRTGRSIVYSCEWPLYMWPFQKPNYTEIRQYCNHWRNFADIDDSWKSIKSILDWTSRNQERIVDVAGPGGWNDPDMLVIGNFGLSWDQQVTQMALWAIMAAPLFMSNDLRHISPQAKALLQDKDVIAINQDPLGKQGYQLRKGDNFEVWERPLSGDAWAVAIINRQEIGGPRSYTIPVASLGKGVACNPACFITQLLPVKRQLGFYNWTSRLKSHINPTGTVLLQLENTMQDSLKDLL
modifications: Synthetic Polypeptide sequence of Variant No. 455 of mature Human GLA
As for B5, the “Relative Activity … at pH 9.65” value in data set [1] is listed as “+ (0.5 to 1.5 relative activity over Rd4BB (SEQ ID NO: 15))”. Moreover, the “Relative Activity of GLA Variants After No Challenge (NC)” value in data set [2] is “+ (0.5 to 1.5 relative activity over Rd4BB (SEQ ID NO: 15))”. In data set [3], the “Relative Activity … at pH 3.7” value is given as “+ (0.5 to 1.5 relative activity over Rd4BB (SEQ ID NO: 15))”.

B6: 457 (protein)
chain: LDNGLARTPTMGWLHWERFMCNLDCQEEPDSCISEKLFMEMAERMVSEGWKDAGYEYLCIDDCWMAPQRDSEGRLQADPQRFPHGIRQLANYVHSKGLKLGIYADVGNKTCAGFPGSFGYYDIDAQTFADWGVDLLKFDGCYCDSLENLADGYKHMSLALNRTGRSIVYSCEWPLYMWPFQKPNYTEIRQYCNHWRNFADIDDSWKSIKSILDWTSRNQERIVDVAGPGGWNDPDMLVIGNFGLSWDQQVTQMALWAIMAAPLFMSNDLRHISPQAKALLQDKDVIAINQDPLGKQGYQLRKGDNFEVWERPLSGDAWAVAIINRQEIGGPRSYTIPVASLGKGVACNPACFITQLLPVKRQLGFYNWTSRLKSHINPTGTVLLQLENTMQASLKDLL
modifications: Synthetic Polypeptide sequence of Variant No. 457 of mature Human GLA
On to B6, for which the “Relative Activity … at pH 9.65” value in data set [1] is “+ (0.5 to 1.5 relative activity over Rd4BB (SEQ ID NO: 15))”. Also, the “Relative Activity of GLA Variants After No Challenge (NC)” value in data set [2] is reported as “+ (0.5 to 1.5 relative activity over Rd4BB (SEQ ID NO: 15))”. In addition, the “Relative Activity … at pH 3.7” value in data set [3] is given as “+ (0.5 to 1.5 relative activity over Rd4BB (SEQ ID NO: 15))”.

B7: 367 (protein)
chain: LDNGLARTPTMGWLHWERFMCNLDCQEEPDSCISEKLFREMAERMVSEGWKDAGYEYLCIDDCWMAPQRDSEGRLQADPQRFPHGIRQLANYVHSKGLKLGIYADVGNKTCAGFPGSFGYYDIDAQTFADWGVDLLKFDGCYCDSLENLADGYKHMSLALNRTGRSIVYSCEWPLYMWPFQKPNYTEIRQYCNHWRNFADIDDSWKSIKSILDWTSRNQERIVDVAGPGGWNDPDMLVIGNFGLSWDQQVTQMALWAIMAAPLFMSNDLRHISPQAKALLQDKDVIAINQDPLGKQGYQLRKGDNFEVWERPLSGDAWAVAIINRQEIGGPRSYTIPVASLGKGVACNPACFITQLLPVKRQLGFYNWTSRLKSHINPTGTVLLQLENTMQMSLKDLL
modifications: Synthetic Polypeptide sequence of Variant No. 367 of mature Human GLA
Take B7: in data set [1], the “Relative Activity … at pH 9.65” value was “− (<0.5 relative activity over Rd4BB (SEQ ID NO: 15))”. Moreover, the “Relative Activity of GLA Variants After No Challenge (NC)” value in data set [2] was “+ (0.5 to 1.5 relative activity over Rd4BB (SEQ ID NO: 15))”. For the same molecule, the “Relative Activity … at pH 3.7” value in data set [3] was “+ (0.5 to 1.5 relative activity over Rd4BB (SEQ ID NO: 15))”.

B8: 460 (protein)
chain: LDNGLARTPTMGWLHWERFMCNLDCQEEPDSCISEKLFMEMAERMVSEGWKDAGYEYLCIDDCWMAPQRDSEGRLQADPQRFPHGIRQLANYVHSKGLKLGIYADVGNKTCAGFPGSFGYYDIDAQTFADWGVDLLKFDGCYCDSLENLADGYKHMSLALNRTGRSIVYSCEWPLYMWPFQKPNYTEIRQYCNHWRNFADIDDSWKSIKSILDWTSRNQERIVDVAGPGGWNDPDMLVIGNFGLSWDQQVTQMALWAIMAAPLFMSNDLRHISPQAKALLQDKDVIAINQDPLGKQGYQLRKGDNFEVWERPLSGDAWAVAIINRQEIGGPRSYTIPVASLGKGVACNPACFITQLLPVKRQLGFYNWTSRLKSHINPTGTVLLQTENTMQMSLKDLL
modifications: Synthetic Polypeptide sequence of Variant No. 460 of mature Human GLA
With B8, in data set [1], the “Relative Activity … at pH 9.65” value was “+ (0.5 to 1.5 relative activity over Rd4BB (SEQ ID NO: 15))”. In data set [2], the “Relative Activity of GLA Variants After No Challenge (NC)” value is recorded as “+ (0.5 to 1.5 relative activity over Rd4BB (SEQ ID NO: 15))”. Also, in data set [3], the “Relative Activity … at pH 3.7” value was “+ (0.5 to 1.5 relative activity over Rd4BB (SEQ ID NO: 15))”.
